Numbering of substitutions follows the chain as printed. Numbers in names are those of the source.
Molecular target: T1, Cre^Cat (interdomain linker and C-terminal catalytic domain of Cre recombinase, residues 127-343) (UniProt P06956 127-343)
T1 sequence (looked up): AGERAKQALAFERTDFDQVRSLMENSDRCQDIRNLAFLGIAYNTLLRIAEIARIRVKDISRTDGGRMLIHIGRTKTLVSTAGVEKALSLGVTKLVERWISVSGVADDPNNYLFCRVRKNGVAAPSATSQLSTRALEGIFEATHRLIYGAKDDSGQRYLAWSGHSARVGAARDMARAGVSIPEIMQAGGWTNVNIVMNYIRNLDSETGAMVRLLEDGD
Test: intermolecular PRE-NMR

B1: MTSL tagged-Cre^Cat C155A/C240A/D343C (domain or fragment, UniProt P06956 127-343, looked up)
chain: T1 sequence (looked up) with C29A, C114A, D217C
modifications: MTSL paramagnetic spin probe on C-terminal residue C343
**Q.** Does B1 bind?
**A.** binds

— paper doi:10.1101/2020.05.24.113654 (bioRxiv, 2020)
